According to PMC5714956, “Insight into the molecular recognition mechanism of the coactivator NCoA1 by STAT6” (Scientific Reports, 2017):

T1: NCoA1 PAS-B domain 257-385 (nuclear coactivator 1) (UniProt Q15788 257-385)
T1 construct: Used unlabeled or 15N / 15N-13C labeled in the NMR samples
T1 sequence (looked up): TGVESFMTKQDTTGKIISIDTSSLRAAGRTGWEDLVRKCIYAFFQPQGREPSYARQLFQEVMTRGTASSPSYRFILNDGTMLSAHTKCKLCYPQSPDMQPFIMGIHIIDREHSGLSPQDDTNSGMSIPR

B1: STAT6 peptide 783-814 (fragment of the STAT6 transactivation domain with the LXXLL motif) (peptide, UniProt P42226 783-814, looked up)
chain: GTWIGEDIFPPLLPPTEQDLTKLLLEGQGESG
notes: The His7-tag probably left with the Z-tag (the Z-tag was removed on Ni-NTA resin after TEV cleavage); Used unlabeled or 15N / 15N-13C labeled in the NMR samples; source: produced recombinantly, purified (TEV cleavage, Ni-NTA, reversed phase HPLC); not shown: Z-tag, N-terminal, cleaved

Assays:
[1] = target: NCoA1 (Homo sapiens) (UniProt Q15788); experiment: fluorescence polarization; conditions: cited from earlier work
[2] = target: NCoA1 (Homo sapiens) (UniProt Q15788); experiment: competitive fluorescence polarization; conditions: cited from earlier work
[3] = target: T1, NCoA1 PAS-B domain 257-385 (nuclear …); experiment: crystal structure; X-ray structure of the NCoA-1 PAS-B domain in complex with the STAT6 783-814 peptide (PDB 5NWX); peptide added in 1.5 fold molar excess, complex purified by gel filtration (Superdex 75); conditions: both partners purified

Sequence of NCoA1 (Homo sapiens) (Q15788 2-1441): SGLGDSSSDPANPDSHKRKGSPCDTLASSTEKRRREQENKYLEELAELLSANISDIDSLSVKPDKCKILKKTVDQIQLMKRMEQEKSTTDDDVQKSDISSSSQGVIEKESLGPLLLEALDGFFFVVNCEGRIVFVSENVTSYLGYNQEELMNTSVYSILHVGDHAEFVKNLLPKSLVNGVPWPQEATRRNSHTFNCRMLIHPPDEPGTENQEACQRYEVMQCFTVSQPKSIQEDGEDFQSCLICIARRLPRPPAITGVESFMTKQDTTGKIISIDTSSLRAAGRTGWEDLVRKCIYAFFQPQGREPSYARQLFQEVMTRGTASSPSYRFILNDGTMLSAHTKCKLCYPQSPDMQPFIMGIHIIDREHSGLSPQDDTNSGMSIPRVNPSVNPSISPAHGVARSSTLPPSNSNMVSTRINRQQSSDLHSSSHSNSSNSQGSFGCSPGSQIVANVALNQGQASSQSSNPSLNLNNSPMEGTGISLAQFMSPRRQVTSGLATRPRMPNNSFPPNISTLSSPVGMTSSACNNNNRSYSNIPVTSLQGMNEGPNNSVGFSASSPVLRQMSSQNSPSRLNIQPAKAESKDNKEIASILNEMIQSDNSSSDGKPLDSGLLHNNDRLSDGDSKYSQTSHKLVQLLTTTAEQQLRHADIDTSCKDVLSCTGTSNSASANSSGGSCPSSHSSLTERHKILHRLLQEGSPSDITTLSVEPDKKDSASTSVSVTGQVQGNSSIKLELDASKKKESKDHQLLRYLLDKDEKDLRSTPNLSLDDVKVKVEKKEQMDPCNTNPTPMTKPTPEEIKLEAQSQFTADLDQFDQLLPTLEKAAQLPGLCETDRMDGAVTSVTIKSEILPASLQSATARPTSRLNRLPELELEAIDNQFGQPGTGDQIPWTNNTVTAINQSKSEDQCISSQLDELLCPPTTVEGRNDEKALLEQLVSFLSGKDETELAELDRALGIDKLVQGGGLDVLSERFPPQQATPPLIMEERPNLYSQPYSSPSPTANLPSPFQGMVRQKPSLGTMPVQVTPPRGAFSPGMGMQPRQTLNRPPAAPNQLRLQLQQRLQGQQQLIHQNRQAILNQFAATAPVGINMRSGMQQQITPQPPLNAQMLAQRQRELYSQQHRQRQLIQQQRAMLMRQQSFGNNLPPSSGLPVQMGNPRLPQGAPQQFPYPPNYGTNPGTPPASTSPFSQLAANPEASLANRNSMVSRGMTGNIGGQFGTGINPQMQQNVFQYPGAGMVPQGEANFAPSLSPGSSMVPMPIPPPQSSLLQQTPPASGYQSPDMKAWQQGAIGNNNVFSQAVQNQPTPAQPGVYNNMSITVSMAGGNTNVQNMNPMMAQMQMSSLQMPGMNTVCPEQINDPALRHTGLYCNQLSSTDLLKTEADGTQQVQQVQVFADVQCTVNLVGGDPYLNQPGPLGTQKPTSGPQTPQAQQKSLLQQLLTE

Molecule	Kd [1] [nM]	Ki [2] [nM]	binding result [3]
STAT6 783-814 (from UniProt P42226)	40	40	
STAT6 794-814 (from UniProt P42226)	320	260	
B1			binds
